Experimental data from the supplement of paper PMC11246515.
± gives the standard deviation of the averaged measurements.

Test: total protein half-life in vivo (active degradation + dilution); higher = more stable protein
[1] = E. coli NCM3722 delta-clpP delta-lon delta-hslV, growth: N-lim chemostat, doubling time 6 h
[2] = E. coli NCM3722 delta-clpP, growth: N-lim chemostat, doubling time 6 h
[3] = E. coli NCM3722 delta-hslV, growth: N-lim chemostat, doubling time 6 h
[4] = E. coli NCM3722 delta-smpB, growth: N-lim chemostat, doubling time 6 h
[5] = wild type E. coli NCM3722, growth: C-lim chemostat, doubling time 3 h
[6] = wild type E. coli NCM3722, growth: C-lim chemostat, doubling time 6 h
[7] = wild type E. coli NCM3722, growth: C-lim chemostat, doubling time 12 h
[8] = wild type E. coli NCM3722, growth: N-lim chemostat, doubling time 12 h
[9] = wild type E. coli NCM3722, growth: P-lim chemostat, doubling time 12 h
[10] = E. coli NCM3722 delta-lon, growth: N-lim chemostat, doubling time 6 h
[11] = wild type E. coli NCM3722, growth: N-lim chemostat, doubling time 6 h
[12] = wild type E. coli NCM3722, growth: P-lim chemostat, doubling time 6 h

Sequence	total protein half-life in vivo [1]	total protein half-life in vivo [2]	total protein half-life in vivo [3]	total protein half-life in vivo [4]	total protein half-life in vivo [5]	total protein half-life in vivo [6]	total protein half-life in vivo [7]	total protein half-life in vivo [8]	total protein half-life in vivo [9]	total protein half-life in vivo [10]	total protein half-life in vivo [11]	total protein half-life in vivo [12]
MTMNITSKQMEITPAIRQHVADRLAKLEKWQTHLINPHIILSKEPQGFVADATINTPNGVLVASGKHEDMYTAINELINKLERQLNKLQHKGEARRAATSVKDANFVEEVEEE [P0AD49]	6.33 ± 1.1 h	4.87 h	1.49 h	0.687 h	0.852 ± 0.17 h	2.32 h	2.47 ± 0.42 h	1.07 h	1.59 h			
MTMYATLEEAIDAAREEFLADNPGIDAEDANVQQFNAQKYVLQDGDIMWQVEFFADEGEEGECLPMLSGEAAQSVFDGDYDEIEIRQEWQEENTLHEWDEGEFQLEPPLDTEEGRAAADEWDER		6.11 h	3.33 h	3.22 ± 0.1 h	2.35 ± 0.29 h	3.94 ± 0.066 h	6.75 ± 1.1 h	4.03 h	7.26 h	3.3 ± 0.71 h	3.33 ± 0.17 h	3.9 ± 0.2 h
MTNLTLDVNIIDFPSIPVAMLPHRCSPELLNYSVAKFIMWRKETGLSPVNQSQTFGVAWDDPATTAPEAFRFDICGSVSEPIPDNRYGVSNGELTGGRYAVARHVGELDDISHTVWGIIRHWLPASGEKMRKAPILFHYTNLAEGVTEQRLETDVYVPLA	6.15 h											
MTNNPPSAQIKPGEYGFPLKLKARYDNFIGGEWVAPADGEYYQNLTPVTGQLLCEVASSGKRDIDLALDAAHKVKDKWAHTSVQDRAAILFKIADRMEQNLELLATAETWDNGKPIRETSAADVPLAIDHFRYFASCIRAQEGGISEVDSETVAYHFHEPLGVVGQIIPWNFPLLMASWKMAPALAAGNCVVLKPARLTPLSVLLLMEIVGDLLPPGVVNVVNGAGGVIGEYLATSKRIAKVAFTGSTEVGQQIMQYATQNIIPVTLELGGKSPNIFFADVMDEEDAFFDKALEGFALFAFNQGEVCTCPSRALVQESIYERFMERAIRRVESIRSGNPLDSVTQMGAQVSHGQLETILNYIDIGKKEGADVLTGGRRKLLEGELKDGYYLEPTILFGQNNMRVFQEEIFGPVLAVTTFKTMEEALELANDTQYGLGAGVWSRNGNLAYKMGRGIQAGRVWTNCYHAYPAHAAFGGYKQSGIGRETHKMMLEHYQQTKCLLVSYSDKPLGLF		4.04 ± 0.7 h	2.42 ± 0.5 h	2.42 ± 0.14 h	2.73 ± 0.41 h	5.1 ± 0.31 h	7.87 ± 0.019 h	4.07 ± 0.55 h	6.36 ± 0.73 h	2.83 ± 0.035 h	2.77 ± 0.77 h	3.08 ± 1.1 h
MTNPQFAGHPFGTTVTAETLRNTFAPLTQWEDKYRQLIMLGKQLPALPDELKAQAKEIAGCENRVWLGYTVAENGKMHFFGDSEGRIVRGLLAVLLTAVEGKTAAELQAQSPLALFDELGLRAQLSASRSQGLNALSEAIIAATKQV [P0AGF2]	4.97 ± 0.16 h	4.73 ± 0.56 h	4.9 ± 0.33 h	4.87 ± 0.87 h	3.4 ± 0.066 h	5.18 ± 0.76 h	8.98 ± 0.8 h	8.14 ± 0.94 h	11.1 ± 0.35 h	5.38 ± 0.38 h	4.504 ± 0.012 h	5.64 ± 0.32 h
MTNVLIVEDEQAIRRFLRTALEGDGMRVFEAETLQRGLLEAATRKPDLIILDLGLPDGDGIEFIRDLRQWSAVPVIVLSARSEESDKIAALDAGADDYLSKPFGIGELQARLRVALRRHSATTAPDPLVKFSDVTVDLAARVIHRGEEEVHLTPIEFRLLAVLLNNAGKVLTQRQLLNQVWGPNAVEHSHYLRIYMGHLRQKLEQDPARPRHFITETGIGYRFML	5.392 ± 0.013 h	5.1 ± 0.7 h	5.29 ± 0.32 h	4.92 ± 0.36 h	3.04 ± 0.1 h	5.35 ± 0.76 h	10.1 ± 0.52 h	9.806 ± 0.011 h	10.1 ± 2 h	4.99 ± 0.47 h	5.05 ± 0.32 h	5.79 ± 0.17 h
MTNYSLRARMMILILAPTVLIGLLLSIFFVVHRYNDLQRQLEDAGASIIEPLAVSTEYGMSLQNRESIGQLISVLHRRHSDIVRAISVYDENNRLFVTSNFHLDPSSMQLGSNVPFPRQLTVTRDGDIMILRTPIISESYSPDESPSSDAKNSQNMLGYIALELDLKSVRLQQYKEIFISSVMMLFCIGIALIFGWRLMRDVTGPIRNMVNTVDRIRRGQLDSRVEGFMLGELDMLKNGINSMAMSLAAYHEEMQHNIDQATSDLRETLEQMEIQNVELDLAKKRAQEAARIKSEFLANMSHELRTPLNGVIGFTRLTLKTELTPTQRDHLNTIERSANNLLAIINDVLDFSKLEAGKLILESIPFPLRSTLDEVVTLLAHSSHDKGLELTLNIKSDVPDNVIGDPLRLQQIITNLVGNAIKFTENGNIDILVEKRALSNTKVQIEVQIRDTGIGIPERDQSRLFQAFRQADASISRRHGGTGLGLVITQKLVNEMGGDISFHSQPNRGSTFWFHINLDLNPNIIIEGPSTQCLAGKRLAYVEPNSAAAQCTLDILSETPLEVVYSPTFSALPPAHYDMMLLGIAVTFREPLTMQHERLAKAVSMTDFLMLALPCHAQVNAEKLKQDGIGACLLKPLTPTRLLPALTEFCHHKQNTLLPVTDESKLAMTVMAVDDNPANLKLIGALLEDMVQHVELCDSGHQAVERAKQMPFDLILMDIQMPDMDGIRACELIHQLPHQQQTPVIAVTAHAMAGQKEKLLGAGMSDYLAKPIEEERLHNLLLRYKPGSGISSRVVTPEVNEIVVNPNATLDWQLALRQAAGKTDLARDMLQMLLDFLPEVRNKVEEQLVGENPEGLVDLIHKLHGSCGYSGVPRMKNLCQLIEQQLRSGTKEEDLEPELLELLDEMDNVAREASKILG [P0AEC5]	6.36 ± 0.23 h	5.96 ± 0.43 h	6.35 ± 0.93 h	5.8 ± 0.066 h	3.45 ± 0.058 h	5.985 ± 0.046 h	10.5 ± 1.6 h	13.1 ± 0.83 h	11.4 ± 0.16 h	6.05 ± 1.2 h		6.32 ± 0.066 h
MTPDELARLTGYSRQTINKWVRKEGWTTSPKPGVQGGKARLVHVNEQVREYIRNAERPEGQGEAPALSGDAPLEVLLVTLAKEMTPVEQKQFTSLLLREGIIGLLQRLGIRDSK [P0AD37]					1.89 h							
MTPFMTEDFLLDTEFARRLYHDYAKDQPIFDYHCHLPPQQIAEDYRFKNLYDIWLKGDHYKWRAMRTNGVAERLCTGDASDREKFDAWAATVPHTIGNPLYHWTHLELRRPFGITGKLLSPSTADEIWNECNELLAQDNFSARGIMQQMNVKMVGTTDDPIDSLEHHAEIAKDGSFTIKVLPSWRPDKAFNIEQATFNDYMAKLGEVSDTDIRRFADLQTALTKRLDHFAAHGCKVSDHALDVVMFAEANEAELDSILARRLAGETLSEHEVAQFKTAVLVFLGAEYARRGWVQQYHIGALRNNNLRQFKLLGPDVGFDSINDRPMAEELSKLLSKQNEENLLPKTILYCLNPRDNEVLGTMIGNFQGEGMPGKMQFGSGWWFNDQKDGMERQMTQLAQLGLLSRFVGMLTDSRSFLSYTRHEYFRRILCQMIGRWVEAGEAPADINLLGEMVKNICFNNARDYFAIELN [P0A8G3]	4.91 ± 0.32 h	4.13 ± 0.56 h	4.83 ± 1.5 h	3.84 ± 0.12 h	2.87 ± 0.56 h	5.94 ± 0.12 h	11.9 ± 0.95 h	6.3 ± 0.21 h	9.95 ± 0.88 h	4.12 ± 0.18 h	4.02 ± 0.48 h	5.26 ± 0.087 h
MTPGGQAQIGNVDLVKQLNSAAVYRLIDQYGPISRIQIAEQSQLAPASVTKITRQLIERGLIKEVDQQASTGGRRAISIVTETRNFHAIGVRLGRHDATITLFDLSSKVLAEEHYPLPERTQQTLEHALLNAIAQFIDSYQRKLRELIAISVILPGLVDPDSGKIHYMPHIQVENWGLVEALEERFKVTCFVGHDIRSLALAEHYFGASQDCEDSILVRVHRGTGAGIISNGRIFIGRNGNVGEIGHIQVEPLGERCHCGNFGCLETIAANAAIEQRVLNLLKQGYQSRVPLDDCTIKTICKAANKGDSLASEVIEYVGRHLGKTIAIAINLFNPQKIVIAGEITEADKVLLPAIESCINTQALKAFRTNLPVVRSELDHRSAIGAFALVKRAMLNGILLQHLLEN [P0AF20]	5.96 ± 0.13 h	6.14 ± 0.17 h	5.92 ± 0.068 h	5.92 ± 1.2 h	2.98 ± 0.067 h	6.44 ± 0.24 h	11.3 ± 1.7 h	13 ± 0.3 h	15.1 ± 0.32 h	6.27 ± 0.59 h	5.9 ± 0.28 h	6.58 ± 0.7 h
MTPHVMKRDGCKVPFKSERIKEAILRAAKAAEVDDADYCATVAAVVSEQMQGRNQVDINEIQTAVENQLMSGPYKQLARAYIEYRHDRDIEREKRGRLNQEIRGLVEQTNASLLNENANKDSKVIPTQRDLLAGIVAKHYARQHLLPRDVVQAHERGDIHYHDLDYSPFFPMFNCMLIDLKGMLTQGFKMGNAEIEPPKSISTATAVTAQIIAQVASHIYGGTTINRIDEVLAPFVTASYNKHRKTAEEWNIPDAEGYANSRTIKECYDAFQSLEYEVNTLHTANGQTPFVTFGFGLGTSWESRLIQESILRNRIAGLGKNRKTAVFPKLVFAIRDGLNHKKGDPNYDIKQLALECASKRMYPDILNYDQVVKVTGSFKTPMGCRSFLGVWENENGEQIHDGRNNLGVISLNLPRIALEAKGDEATFWKLLDERLVLARKALMTRIARLEGVKARVAPILYMEGACGVRLNADDDVSEIFKNGRASISLGYIGIHETINALFGGEHVYDNEQLRAKGIAIVERLRQAVDQWKEETGYGFSLYSTPSENLCDRFCRLDTAEFGVVPGVTDKGYYTNSFHLDVEKKVNPYDKIDFEAPYPPLANGGFICYGEYPNIQHNLKALEDVWDYSYQHVPYYGTNTPIDECYECGFTGEFECTSKGFTCPKCGNHDASRVSVTRRVCGYLGSPDARPFNAGKQEEVKRRVKHLGNGQIG	2.17 ± 0.33 h	1.045 ± 0.0046 h	0.844 ± 0.15 h	0.762 ± 0.051 h	2.63 ± 0.5 h	2 ± 0.24 h	2.72 ± 0.57 h	1.49 ± 0.42 h	4.91 ± 0.075 h	1.02 ± 0.11 h	1.67 ± 0.91 h	2.99 ± 0.31 h
